These results are taken from FireProtDB (doi:10.1074/jbc.271.51.32729).

For the series the following is noted: Escherichia coli (strain K12), Thermal, CD, reversible: yes, whole UniProt chain shown.

B1: Ribonuclease HI wild type, P0A7Y4 (protein)
chain: MLKQVEIFTDGSCLGNPGPGGYGAILRYRGREKTFSAGYTRTTNNRMELMAAIVALEALKEHCEVILSTDSQYVRQGITQWIHNWKKRGWKTADKKPVKNVDLWQRLDAALGQHQIKWEWVKGHAGHPENERCDELARAAAMNPTLEDTGYQVEV
In the case of B1, under “pH 3, glycine-HCl 10 mM”, the Tm was found to be 50 °C and the “unfolding enthalpy (van 't Hoff)” value was 95.1 kcal/mol. Further, the Tm (pH 9, glycine-NaOH 50 mM) is 47 °C.

A word on the Tm: it is the temperature at the midpoint of the melting transition.
